Assay results from the nanobody polyreactivity screen of Harvey et al. (2022).

Experiment: yeast display, Sf9 membrane polyspecificity reagent, FACS + sequencing; frameworks hold sequencing errors
Summary of the method: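 A synthetic nanobody library was expressed on Saccharomyces cerevisiae BJ5465 by galactose induction for 36–48 hours. The library was stained for 1 hour at 4 °C with 10% biotinylated, detergent-solubilized Sf9 membrane reagent and enriched with streptavidin microbeads before FACS. Low and high (top ~1%) gates were set on anti-HA fluorescence for expression and streptavidin fluorescence for reagent binding, and each polyreactivity label reflects the gate of origin.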

Sequence | polyreactivity (PSR sort gate)
QVQLVESGGGLVQAGGSLRLSCAASGRTFTRYAMGWYRQAPGKERELVATINSSGDRTYYADSVKGRFTISRDNAKNTVYLQMNSLKPEDTAVYYCAKRWSPYLYGYWGQGTQVTVSS | high polyreactivity
QVQLVESGGGLVQAGGSLRLSCAASGRTFTRYAMGWYRQAPGPERELVAASRWSGTRTYYAVSVKGRITISRDNAKNTVDLQMNSLTPEDTAVYYCAARDRVYPDYGYWGQGTQVTVSS | high polyreactivity
QVQLVESGGGLVQAGGSLRLSCAASGRTFTRYTMGWYRQAPGKERELVAAISYSGGSTYYADSVKGRFTISRDNAKNTVYLQMNSLKPEDTAVYYCAAASVRWPGYDYWGQGTQVTVSS | high polyreactivity
QVQLVESGGGLVQAGGSLRLSCAASGRTFTRYTMGWYRQAPGKERELVAAITRGGSTYADSVKGRFTISRDNAKNTVYLQMNSMKPEDTAVYYCAAYWGFYPWRAYPYDYWGQGTQVTVSS | high polyreactivity
QVQLVESGGGLVQAGGSLRLSCAASGRTFTRYTSGSYRPAPGKERELVAAIRYSGGSTYYADSVKGRFTISGDNAKNTVYLQMNSLKPEDTAVYYCAARSYYYGFLYRYDYWGQGTQVTVSS | low polyreactivity
QVQLVESGGGLVQAGGSLRLSCAASGRTFTSNAMGWYRQAPGKERELVAAISNRGTRTYYADSVKGRFTISRDNAKNTVYLQMNSLKPEDTAVYYCAASERDQRFKHYYWGQGTQVTVSS | high polyreactivity
QVQLVESGGGLVQAGGSLRLSCAASGRTFTSYAIGWYRQAPGKERELVAAISGSGSRTKYADSVKGRFTISRDNAKNTVYLQMNSLKPEDTAVYYCNADYRHRHDYWGQGTQVTVSS | high polyreactivity
QVQLVESGGGLVQAGGSLRLSCAASGRTFTSYAMGWYRQAPGKERELVAAISGNGVTTYYADSVKGRFTISRDNAKNTLYLQINSLKPEDTAVYYCAAGQRRFGYYYWGQGTQVTVSS | high polyreactivity
QVQLVESGGGLVQAGGSLRLSCAASGRTFTSYAMGWYRQAPGKERELVAAISGSGSRTYYADSVKGRFTISRDNAKNTVYLQMNSLKPEDTAVYYCAVSYTTYYHRYYYWGQGTQVTVSS | high polyreactivity
QVQLVESGGGLVQAGGSLRLSCAASGRTFTVYAMGWYRQAPGKEREFVAAITERGGSTYYADSVKGRFTISRDNAKNTVYLQMNSLKPEDTAVYYCAAVYYWRPGWYVRFDYWGHGTQVTVSS | low polyreactivity
QVQLVESGGGLVQAGGSLRLSCAASGRTFTVYGMGWYRQAPGKEREFVATISRRGGRTYYADSVKGRFTISRDNAKNTVYLHMNSLKPEDTAVYYCNADIGTYVRSGGGDFWGQGTQVTVSS | low polyreactivity
QVQLVESGGGLVQAGGSLRLSCAASGRTFTWYAMGWYRQAPGKERELVAAISKSGGSTYYADSVKGRFTISRDNAKNTVYLQMNSLKPEDTAVYYCNADFYGYFLGYGYWGQGTQVTVSS | low polyreactivity
QVQLVESGGGLVQAGGSLRLSCAASGRTFTYNAMGWYRQAPGKERELVAAISRSGGRTYYADSVKGRFTISRDNAKNTVYLQMNSLKPEDTAVYYCNTDGYYTTAKYGYWGQGTQVTVSS | high polyreactivity
QVQLVESGGGLVQAGGSLRLSCAASGRTFTYNAMGWYRQAPGKERELVATINTSGASTSYADSVKGRFTISRDNAKNTVYLQMNCLKPEDTAVYYCNRDRRYYHRFDYWGQGTQVTVSS | low polyreactivity
QVQLVESGGGLVQAGGSLRLSCAASGRTFTYNVMGWYRQAPGKERELVAAITSGGTNYADSVKGRFTISRDNAKNTVYLQMNSLKPEDTAVYYCATDYYDDVTIGYDYWGQGTQVTVSS | low polyreactivity
QVQLVESGGGLVQAGGSLRLSCAASGRTFTYYAMGWYRQAPGKERELVAAIRYTGGSTHYADSVKGRFTISRDNAKNTVYLQMNSLKPEDKAVYYCAARRAYTRGGTVYFGYYYWGQGTQVTVSS | high polyreactivity

Sequence | polyreactivity (PSR sort gate)
QVQLVESGGGLVQAGGSLRLSCAASGRTFTYYAMGWYRQAPGKERELVAAISNGGRTYYADSVKGRFTISRDNAKNTVYLQMNSLKPEDTAVYYSAAYLSPKGRGFGSWGQGTQVTVSS | high polyreactivity
QVQLVESGGGLVQAGGSLRLSCAASGRTFTYYAMGWYRQATGKERELVAAISRGGGSTHYADSVKGRFTISRDNAKNTVYFQMNSLKPEDTAVYYCAARYSTRYKYDYWGQGTQVTVSS | high polyreactivity
QVQLVESGGGLVQAGGSLRLSCAASGRTFTYYAMGWYRQGPGKESELVAAITSGGRTYYADSVKGRFTISRDNAKNTVYLELNSLKPDDTAVYYCADRRIRDYYRSYDYWGQGTQGTVSS | high polyreactivity
QVQLVESGGGLVQAGGSLRLSCAASGRTFTYYGKGWYRQAPGKERELVAAITERGDSTYYADSVKGRFTISRDNAKNTVYLQMNSLKPEDTAVYYCAAAEHLTRPTSPTQDGDHWGQGTQVTVSS | low polyreactivity
QVQLVESGGGLVQAGGSLRLSCAASGRTFTYYSMGWYRQAPGKESELVARISIRGTNTYYADSLKGRFTISRDNAKNTVYLQMTSLKPEDTAVYYCAKYYYTSIVGYDSWGQGTQVTVSS | low polyreactivity
QVQLVESGGGLVQAGGSLRLSCAASGRTFVDYDMGWYRQAPGKERELVADINSGGSAYYADSVKGRFTISRDNAKNTVYLQMNSLKPEDTAVYYCAASYYGDNKYDYWGQGTQVTVSS | high polyreactivity
QVQLVESGGGLVQAGGSLRLSCAASGRTFVFNAMGWYSPAPGKERDLVAGISGSGGSTYYADSVKGRFTISRDNAKNTVYLQMNSLKPEDTAVYYCATKFPRKELDQDSVSGLGYWGLGTQVTVSS | low polyreactivity
QVQLVESGGGLVQAGGSLRLSCAASGRTFVFYGMGWYRQAPGKEREFVAAITRRGGSTYYADSVKGRFTISRDNAKNTVYLQMNSLKPEDTAVYYCAAGYSSRYRGGLDYWGQGTQVTVSS | high polyreactivity
QVQLVESGGGLVQAGGSLRLSCAASGRTFVIYVMGLYRQAPGKERELVARISGSDGGTYYADSVKGRFTISRDNAKNTVYLQMNSLKPEDTAVYYCATARYPVAGLMDYWGQGTQVTVSS | low polyreactivity
QVQLVESGGGLVQAGGSLRLSCAASGRTFVKNAMGWYIQAPGKERELVAAISYRGGSTYYADSVKGRFTISRDNAKNTVYLQMNSLKPEDTAVYYCAAQYLYYRYGGFGYWGQGTQVTVSS | high polyreactivity
QVQLVESGGGLVQAGGSLRLSCAASGRTFVLYAMGWYRQAPGKERELVAAIRQSDVSTYYADSVKGRFTISRDNAKNTVFLQMNSLKPEDTAVFYCAARNRYRRRYYYWGQGTQVTVSS | high polyreactivity
QVQLVESGGGLVQAGGSLRLSCAASGRTFVNNAMGRYREAPGKERELVAAITTSAGSTYYADSVKGRFTISRDNAKNTVYLQMNSLNPEDTAVYYCAAVVWKKRYFDLEYWGQGTQVTVSS | low polyreactivity
QVQLVESGGGLVQAGGSLRLSCAASGRTFVNNAMGWYRQAPGKERELVASIRYIGGSTYYADSVKGRFTISRDNEKNTVYLQMNSLKPEDTAVYYCAALAGRRPYDYWGQGTQVTVSS | high polyreactivity
QVQLVESGGGLVQAGGSLRLSCAASGRTFVNYAMGWYRQAPGKERELVAAISGGGGTNYADSVKGRFTISRDNAKNTVYLQMNSLKPEDTAVYYCAADTNGYEFDYWGQGTQVTVSS | low polyreactivity
QVQLVESGGGLVQAGGSLRLSCAASGRTFVPNAMGWYRQAPGKERELVAAISWSGDSTYYADSVKGRFTISRDNAKNTVYLQMNSLKPEDTAVYYCAARYEFFYKAFDVDSWGQGTQVTVSS | low polyreactivity
QVQLVESGGGLVQAGGSLRLSCAASGRTFVPYAMGWYRQAPGKERELVAAINSGTRTYADSVKGRFTISRDNAKNTVYLQMNSLKPEDTAVYYCARRGYYYDYWGQGTQVTVSS | high polyreactivity
